Results from publication PMC2854584.

Experiments:
CD4-Ig = experiment: pull-down
[1] = biological target: HIV-1YU2 gp41 transmembrane envelope glycoprotein (HIV-1 YU2) (UniProt P35961); experiment: gp120-gp41 association index
CCR5 = CCR5 (UniProt P51681); experiment: radioligand binding
soluble CD4 = soluble CD4 (UniProt P01730); experiment: SPR

Row | Substance | CD4-Ig binding (relative to wild type) (CD4-Ig) | association index (relative to wild type) [1] | also measured
1 | HIV-1YU2 gp120 A60G (natural protein) | 1.46 |  | 
2 | HIV-1YU2 gp120 A73S (natural protein) | 1.19 |  | 
3 | HIV-1YU2 gp120 A221G (natural protein) | 0.76 |  | 
4 | HIV-1YU2 gp120 D57A (natural protein) | 0.91 | 0.62 | 
5 | HIV-1YU2 gp120 D78A (natural protein) | 1.13 |  | 
6 | HIV-1YU2 gp120 D107A (natural protein) | 0.66 |  | fold reduction of CCR5 binding against wt gp120 (CCR5): 2 fold; Kd (soluble CD4): 74.3 nM; koff (soluble CD4): 0.00142 s⁻¹; kon (soluble CD4): 19100 M⁻¹ s⁻¹
7 | HIV-1YU2 gp120 D107A/S375W (natural protein) | 0.76 | 0.61 | 
8 | HIV-1YU2 gp120 D107Q (natural protein) | 0.69 |  | 
9 | HIV-1YU2 gp120 D113A (natural protein) | 1.79 |  | 
10 | HIV-1YU2 gp120 E47A (natural protein) |  | 0.64 | 
11 | HIV-1YU2 gp120 E91A (natural protein) | 1.45 |  | 
12 | HIV-1YU2 gp120 F53A (natural protein) | 0.29 | 0.25 | 
13 | HIV-1YU2 gp120 F210A (natural protein) |  | 1.33 | 
14 | HIV-1YU2 gp120 F223A (natural protein) | 0.85 |  | 
15 | HIV-1YU2 gp120 H66A (natural protein) |  |  | Kd (soluble CD4): 172 nM; koff (soluble CD4): 0.000569 s⁻¹; kon (soluble CD4): 3320 M⁻¹ s⁻¹
16 | HIV-1YU2 gp120 H66A/S375W (natural protein) |  |  | Kd (soluble CD4): 7.67 nM; koff (soluble CD4): 5.02e-06 s⁻¹; kon (soluble CD4): 655 M⁻¹ s⁻¹
17 | HIV-1YU2 gp120 H72A (natural protein) | 1.11 |  | 
18 | HIV-1YU2 gp120 I108A (natural protein) | 1.48 |  | 
19 | HIV-1YU2 gp120 I109A (natural protein) | 0.49 |  | 
20 | HIV-1YU2 gp120 L52A (natural protein) | 0.23 | 0.25 | 
21 | HIV-1YU2 gp120 L111A (natural protein) |  | 0.28 | fold reduction of CCR5 binding against wt gp120 (CCR5): 2 fold; Kd (soluble CD4): 32.3 nM; koff (soluble CD4): 0.000426 s⁻¹; kon (soluble CD4): 13200 M⁻¹ s⁻¹
22 | HIV-1YU2 gp120 L111A/S375W (natural protein) | 1.32 |  | Kd (soluble CD4): 1.12 nM; koff (soluble CD4): 1.92e-05 s⁻¹; kon (soluble CD4): 17100 M⁻¹ s⁻¹
23 | HIV-1YU2 gp120 L111F (natural protein) |  |  | Kd (soluble CD4): 13.3 nM; koff (soluble CD4): 0.000204 s⁻¹; kon (soluble CD4): 15300 M⁻¹ s⁻¹
24 | HIV-1YU2 gp120 L111W (natural protein) |  |  | Kd (soluble CD4): 621 nM; kon (soluble CD4): 2090 M⁻¹ s⁻¹
25 | HIV-1YU2 gp120 L116A (natural protein) | 0.67 |  | 
26 | HIV-1YU2 gp120 M104A (natural protein) | 1.25 |  | 
27 | HIV-1YU2 gp120 N80A (natural protein) | 1.24 | 0.65 | 

Row | Substance | CD4-Ig binding (relative to wild type) (CD4-Ig) | association index (relative to wild type) [1] | also measured
28 | HIV-1YU2 gp120 N99A (natural protein) | 0.97 | 0.7 | 
29 | HIV-1YU2 gp120 P76A (natural protein) | 1.02 | 0.64 | 
30 | HIV-1YU2 gp120 P79A (natural protein) | 1.29 | 0.64 | 
31 | HIV-1YU2 gp120 P212A (natural protein) | 0.65 |  | 
32 | HIV-1YU2 gp120 Q82A (natural protein) | 1.12 | 1.03 | 
33 | HIV-1YU2 gp120 Q103A (natural protein) | 1.15 | 1.07 | 
34 | HIV-1YU2 gp120 Q103R (natural protein) | 0.74 |  | 
35 | HIV-1YU2 gp120 Q114N (natural protein) | 1.09 | 0.74 | 
36 | HIV-1YU2 gp120 S110N (natural protein) |  | 0.66 | 
37 | HIV-1YU2 gp120 S110W (natural protein) |  | 0.49 | 
38 | HIV-1YU2 gp120 S115A (natural protein) | 1.36 | 1.12 | 
39 | HIV-1YU2 gp120 S375W (natural protein) | 1.12 |  | Kd (soluble CD4): 0.0469 nM; koff (soluble CD4): 6.49e-07 s⁻¹; kon (soluble CD4): 13800 M⁻¹ s⁻¹
40 | HIV-1YU2 gp120 T49A (natural protein) | 1.14 | 1.07 | 
41 | HIV-1YU2 gp120 T51A (natural protein) | 1.02 | 1.06 | 
42 | HIV-1YU2 gp120 T63A (natural protein) | 1.79 |  | 
43 | HIV-1YU2 gp120 T71A (natural protein) | 0.85 |  | 
44 | HIV-1YU2 gp120 T77A (natural protein) | 1.52 |  | 
45 | HIV-1YU2 gp120 V68A (natural protein) | 1.12 |  | 
46 | HIV-1YU2 gp120 V89A (natural protein) | 0.97 |  | 
47 | HIV-1YU2 gp120 W69L (natural protein) | 0.64 | 0.89 | fold reduction of CCR5 binding against wt gp120 (CCR5): 2 fold; Kd (soluble CD4): 54.2 nM; koff (soluble CD4): 0.000526 s⁻¹; kon (soluble CD4): 9690 M⁻¹ s⁻¹
48 | HIV-1YU2 gp120 W69L/L111W (natural protein) |  | 0.28 | Kd (soluble CD4): 871 nM; koff (soluble CD4): 0.000483 s⁻¹; kon (soluble CD4): 554 M⁻¹ s⁻¹
49 | HIV-1YU2 gp120 W69L/S375W (natural protein) | 1.11 | 0.81 | Kd (soluble CD4): 0.846 nM; koff (soluble CD4): 9.98e-06 s⁻¹; kon (soluble CD4): 11800 M⁻¹ s⁻¹
50 | HIV-1YU2 gp120 W96A (natural protein) | 0.66 | 0.65 | 
51 | HIV-1YU2 gp120 W112A (natural protein) | 0.25 |  | 
52 | HIV-1YU2 gp120 W437R (natural protein) |  | 0.64 | 
53 | HIV-1YU2 gp120 Y61A (natural protein) | 1.33 | 0.89 | 
54 | HIV-1YU2 gp120 exterior envelope glycoprotein, wild-type (from UniProt P35961 32-498) (natural protein) | 1 |  | 
